Experimental data taken from patent US20190113512A1 (MIT, published 2019).
Changes are numbered by the printed parent chain.

Legend:
[1] = biological target: T1, streptavidin Alexa Fluor 647 (UniProt P22629 37-163); experiment: yeast-surface display flow cytometry, secondary reagent alone, geometric MFI
T1 construct: also called SA-AF647; streptavidin-AF 647

H1BA = H1BA (Mycobacterium tuberculosis); experiment: yeast-surface display flow cytometry, specificity test
H2BA [2] = biological target: T2, H2BA (Mycobacterium tuberculosis); experiment: as above
H6BA = H6BA (Mycobacterium tuberculosis); experiment: as above
H7BA = H7BA (Mycobacterium tuberculosis); experiment: as above
H2BA [3] = biological target: T2, H2BA; experiment: yeast-surface display; validated conditions not given

T1 sequence (P22629 37-163 limits assumed): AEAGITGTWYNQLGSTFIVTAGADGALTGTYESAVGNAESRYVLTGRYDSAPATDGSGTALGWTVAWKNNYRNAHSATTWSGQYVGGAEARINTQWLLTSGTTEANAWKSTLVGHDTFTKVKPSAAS

B1: rcSso7d.Rv1656 (yeast-surface displayed) (designed binder)
chain: MATVKFTYQGEEKQVDISKIKWVRRYGQYIGFSYDEGGGAWGKGYVSEKDAPKELLQMLEKQ
notes: also called rcSso7d.H4.2; H4.2
binding result [1]: no binding

B2: rcSso7d.H1BA.3 (designed binder)
chain: MATVKFTYQGEEKQVDISKIKHVIRNGQYIIFAYDEGGGAYGGGWVSEKDAPKELLQMLEKQ
notes: also called 1.E2.2
% positive (H1BA): 71.5%
% positive (H2BA [2]): 0.9%
% positive (H6BA): 0.9%
% positive (H7BA): 1.3%

B3: rcSso7d.H2BA.2 (designed binder)
chain: B2 chain with H22Y, I24G, N26W, Y29N, I31G, G43Y, W45G
binding result (H2BA [3]): binds
